Assay in all cases: MST
For test [1], the target named is EphA2 intracellular region (ICR), kinase-dead (D739N) (human) (UniProt P29317).
Test [2] deals with EphA2 ICRΔSAM, kinase-dead (D739N) (human).
The target of test [3] is EphA2 ICRΔSAM, wildtype, phosphorylated (human).
In test [4] the target is EphA2 intracellular region (ICR), wildtype, phosphorylated (human) (UniProt P29317).
In test [5] the target is EphA2 ICRΔSAM, wildtype, phosphorylated (human). This is another data set of the same source.
Target sequence in this assay (P29317 899-973, stated change not applied): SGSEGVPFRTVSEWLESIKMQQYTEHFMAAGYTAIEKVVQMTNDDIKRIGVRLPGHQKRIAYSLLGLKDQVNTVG

The values below come from paper doi:10.1101/2025.09.29.679228.

Read-outs that look alike come from different tables or passages of the source.

A word on the Kd: it is the concentration at which binding is half-saturated. A higher Kd goes with a looser complex. In turn, “EphA2 intracellular region (ICR), kinase-dead (D739N) (from UniProt P29317 559-976) (domain or fragment)” registered a Kd in test [1] of 1.3 µM.

In the case of “EphA2 ICRΔSAM, kinase-dead (D739N) (domain or fragment)”, the Kd in test [2] turned out to be 1 µM.

Regarding “EphA2 ICRΔSAM, wildtype, phosphorylated (domain or fragment)”, in test [3], the Kd was found to be 5.4 µM.

On to “EphA2 intracellular region (ICR), wildtype, phosphorylated (from UniProt P29317 559-976) (domain or fragment)”, for which the Kd in test [4] was determined as 15 µM.

B1: SHIP2 SAM domain (isolated) (domain or fragment)
chain: GMSAWLRAIGLERYEEGLVHNGWDDLEFLSDITEEDLEEAGVQDPAHKRLLLDTLQLSK
Molecule B1 showed a Kd in test [5] of 7.5 µM.
